Molecular target: MdWRKY17 (Malus x domestica, UniProt A0A9E6GT21 1-512)
Assay: EMSA; Chemiluminescent EMSA Kit (Beyotime); buffer, salt, pH and temperature not stated
Conditions: protein: recombinant; tags: His (pET32a); label: biotin; blunt

Chain of MdWRKY17 (A0A9E6GT21 entry or part of it): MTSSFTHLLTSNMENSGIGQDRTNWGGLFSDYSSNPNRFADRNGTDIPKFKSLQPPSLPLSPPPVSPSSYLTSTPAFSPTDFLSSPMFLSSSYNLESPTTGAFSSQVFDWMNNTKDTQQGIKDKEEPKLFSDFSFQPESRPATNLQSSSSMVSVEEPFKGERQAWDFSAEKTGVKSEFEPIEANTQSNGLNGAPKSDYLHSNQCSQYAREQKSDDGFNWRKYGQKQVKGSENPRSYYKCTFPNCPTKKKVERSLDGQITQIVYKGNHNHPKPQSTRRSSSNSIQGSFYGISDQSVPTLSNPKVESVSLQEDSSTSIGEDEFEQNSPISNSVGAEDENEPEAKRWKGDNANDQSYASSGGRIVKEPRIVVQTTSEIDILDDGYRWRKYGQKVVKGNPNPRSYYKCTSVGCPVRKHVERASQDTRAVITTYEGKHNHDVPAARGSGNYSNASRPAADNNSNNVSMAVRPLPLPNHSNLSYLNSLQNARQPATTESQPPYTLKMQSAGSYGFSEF

Binder	binding result
MdPL-like-P1 probe (dsDNA) DNA 1: AGGAGTACCTTTGGTCAAACTATATTCAAA DNA 2: TTTGAATATAGTTTGACCAAAGGTACTCCT	binds
MdDMR6 probe (dsDNA) DNA 1: ATATTGTTTTCTGCATTTTTGACTTAATTTTTATAAATTAA DNA 2: TTAATTTATAAAAATTAAGTCAAAAATGCAGAAAACAATAT	binds
MdPL-like-P3 probe (dsDNA) DNA 1: AGTTGACCATTGACCGTTGACTGAGTCAACAGTCAAGGTCAACT DNA 2: AGTTGACCTTGACTGTTGACTCAGTCAACGGTCAATGGTCAACT	binds
MdPL-like-P2 probe (dsDNA) DNA 1: AAGTCAACTAAAAAAGTCAACGTCTGACCGTTGACTGGTCAAAG DNA 2: CTTTGACCAGTCAACGGTCAGACGTTGACTTTTTTAGTTGACTT	binds
